What was measured:
P19 cells = assay: Cell adhesion assay (P19); type: cell-based, murine; conditions: fibronectin coated dishes, 90 min
Experimental: (§1) Cell adhesion assay. Six well plates (Falcon) were coated with thin layers of Matrigel or with 0.5 μg cm^2 fibronectin (29). Growth medium was replaced 48 h before harvest with binding medium, either DMEM (HRMEC) or ∝-MEM (P19) containing 1% bovine albumin. Cells were recovered by trypsinization (HRMEC) or vigorous tituration (P19) and washed three times with binding medium and plated at 1×10^5 cells per well. Ligands were added coincident with plating at concentrations indicated above. After 90 min, unattached cells were dislodged by applying 4 brisk slaps of the plate on a horizontal surface, and the attached cell layer was carefully washed once with PBS containing calcium and magnesium to collect the remaining unattached cells. Attached cells were collected after incubation in Dispase (Collaborative Biomedical Products). Separate fractions were recovered by centrifugation, washed once and trypan blue excluding cells counted visually using a hemocytomer. The ratio of attached to total number of cells recovered were calculated for each of three wells. Data are expressed as mean+/−SEM and are representative of three independent experiments.

HRMEC [1] = assay: Cell adhesion assay (HRMEC); type: cell-based, human; conditions: 90 min after plating
Experimental: as §1

HRMEC [2] = assay: Endothelial assembly into capillary-like structures (HRMEC); type: cell-based, human; conditions: HRMEC on Matrigel, two dimensional in vitro assay, 8 h
Experimental: Endothelial assembly into capillary-like structures. Twelve well plates (Falcon) were coated with thin layers of Matrigel. HRMEC were plated at a density of 4×10^4 cells/well in DME containing 1% fetal bovine serum. Indicated agonists, control peptides, alone, or in combination with the EphB1/Fc antagonist (1000 ng ml^−1) (FIG. 5) were added at the time of plating. Cells were incubated at 37° C. for 8 h and photographed using phase microscopy (magnification 100×) (Diaphot-TMD, Nikon).

EphB1 = target: T1, EphB1 (Homo sapiens, UniProt P54762); assay: EphB1 immunoprecipitation and phosphotyrosine immunoblot; type: cell-based; conditions: endothelial cells on adsorbed ligand
T1 construct: Ligand stimulation and immunoprecipitation of endogenous EphB receptors; endogenous in cells; host or cells: HRMEC (human); P19 (murine teratocarcinoma) in part of the results
T1 sequence (P54762 18-984): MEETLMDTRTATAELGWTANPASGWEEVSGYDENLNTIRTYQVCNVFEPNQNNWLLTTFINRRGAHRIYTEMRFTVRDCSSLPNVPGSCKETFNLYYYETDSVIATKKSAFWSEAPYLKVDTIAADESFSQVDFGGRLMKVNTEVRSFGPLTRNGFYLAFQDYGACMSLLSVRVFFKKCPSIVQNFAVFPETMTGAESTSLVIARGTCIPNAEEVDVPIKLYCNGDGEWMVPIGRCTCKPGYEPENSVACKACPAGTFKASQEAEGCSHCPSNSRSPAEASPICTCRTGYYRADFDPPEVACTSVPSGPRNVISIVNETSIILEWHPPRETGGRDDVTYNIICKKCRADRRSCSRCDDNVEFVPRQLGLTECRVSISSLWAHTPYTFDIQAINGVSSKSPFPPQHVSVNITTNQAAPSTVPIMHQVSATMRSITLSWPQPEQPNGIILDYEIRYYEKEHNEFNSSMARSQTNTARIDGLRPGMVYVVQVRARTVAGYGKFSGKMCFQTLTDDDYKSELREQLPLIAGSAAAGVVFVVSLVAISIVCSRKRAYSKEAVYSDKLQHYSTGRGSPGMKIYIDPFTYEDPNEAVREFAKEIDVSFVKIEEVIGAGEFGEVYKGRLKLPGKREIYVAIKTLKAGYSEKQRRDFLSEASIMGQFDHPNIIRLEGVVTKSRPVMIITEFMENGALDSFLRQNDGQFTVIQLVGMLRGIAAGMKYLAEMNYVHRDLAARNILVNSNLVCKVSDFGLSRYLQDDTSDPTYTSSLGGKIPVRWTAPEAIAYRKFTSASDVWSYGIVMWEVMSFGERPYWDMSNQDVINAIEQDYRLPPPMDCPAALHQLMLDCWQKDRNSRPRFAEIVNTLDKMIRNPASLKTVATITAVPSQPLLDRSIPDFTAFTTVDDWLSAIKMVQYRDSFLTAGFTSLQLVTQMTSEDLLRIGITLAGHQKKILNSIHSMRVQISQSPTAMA

B1: ephrin-B1/Fc dimers: disulfide-linked immunoglobulin Fc fusion form of ephrin-B1 (protein)
chain: LAKNLEPVSWSSLNPKFLSGKGLVIYPKIGDKLDIICPRAEAGRPYEYYKLYLVRPEQAAACSTVLDPNVLVTCNRPEQEIRFTIKFQEFSPNYMGLEFKKHHDYYITSTSNGSLEGLENREGGVCRTRTMKIIMKVGQDPNAVTPEQLTTSRPSKEADNTVKMATQAPGSRGSLGDSDGKHETVNQEEKSGPGASGGSSGDPDGFFNSK
modifications: left off: a dimerising Fc or GST
- P19 attachment to fibronectin (P19 cells): modest effect to decrease
- HRMEC attachment to Matrigel- and fibronectin-coated surfaces (HRMEC [1]): did not
- endothelial capillary-like assembly (HRMEC [2]): did not
- EphB1 receptor activation at densities greater than 300 ng/cm^2 (EphB1): did not show a decrement
- adsorption densities stimulating EphB1 receptor activation (EphB1; phosphotyrosine immunoblot): greater than 100 ng/cm^2

Source: patent publication US20030157712A1, “Methods for determining cell responses through EphB receptors” (priority 1997, published 2003)
